Laboratory results published in patent US20170051285A1, “COMPOSITIONS AND METHODS OF USING SAME FOR REDUCING RESISTANCE TO MOSQUITO LARVICIDES” (priority 2014, published 2017).
Entries after “also recorded” stand apart in the source; their conditions may differ. Read-outs that look alike come from different tables or passages of the source.

Key:
Type in all cases: in vivo, Aedes aegypti
[1] = tested on: Ae. aegypti female mosquitoes (Rockefeller and Rio de Janeiro strains); assay: CDC bottle bioassay with deltamethrin, adult females; conditions: 2 μg/mL deltamethrin; for mortality at 2 µg/mL: Aedes aegypti, read-out: mortality at diagnostic dosage
Description: FIGS. 14A-C are graphs illustrating the dose-response curves for 3- to 5-day-old Aedes aegypti female mosquitoes on insecticide-susceptible Rockefeller strain (FIG. 14A) and on insecticide-resistant Rio de Janeiro strain (FIG. 14B). Mosquitoes were exposed to different concentrations of deltamethrin in 250-mL glass bottles for up to 24 hours and the percentage of mortality for each time point is shown. FIG. 14C, comparison of the mortality rates of female mosquitoes from Rockefeller (Rock) and Rio de Janeiro (RJ) strains exposed to 2 μg/mL of deltamethrin for different time-points. Data represent mean values of three replicates with standard deviation.
Bottles were prepared following the Brogdon and McAllister (1998) protocol [Brogdon and McAllister (1998) Emerg Infect Dis 4:605-613]. Fifteen-twenty non-blood-fed females from each site were introduced in 250 mL glass bottles impregnated with different concentrations of deltamethrin (Sigma-Aldrich) in 1 ml acetone. Each test consisted of four impregnated bottles and one control bottle. The control bottle contained acetone with no insecticide. At least three tests were conducted for each insecticide and population. Immediately prior to use, all insecticide solutions were prepared fresh from stock solutions. At 15, 30 and 45 min intervals, the number of live and dead mosquitoes in each bottle was recorded. The mortality criteria included mosquitoes with difficulties flying or standing on the bottle's surface. Mosquitoes that survived the appropriate dose for insecticide were considered to be resistant [Brogdon and McAllister (1998), supra].
Therefore, it was concluded that 36.05% of the mosquitoes in this population (RJ) are resistant to deltamethrin.

[2] = tested on: Ae. aegypti larvae (Rockefeller and Rio de Janeiro strains); assay: Temephos larval susceptibility bioassay (WHO methodology)
Description: (§1) First (L1), Second (L2) or Third (L3) instar larvae were treated (in groups of 100 larvae) in a final volume of 3 mL of autoclaved water with sodium channel (AAEL008297), PgP (AAEL010379), Ago3 (AAEL007823), and Aub (AAEL007698) dsRNA (0.5 μg/μL), or AAEL005112, AAEL003446, AAEL007815 and AAEL002202 dsRNA (0.1 μg/μL). The control group was kept in 3 ml sterile water only. Larvae were soaked in the dsRNA solutions for 24 hours at 27° C., and were then transferred into new containers (200 larvae/1000 mL of chlorine-free tap water), which were also maintained at 27° C., and provided […] lab dog/cat diet (Purina Mills) suspended in water as a source of food on a daily basis. After soaking procedure, the larvae were reared until third instar and divided in […] with 10-20 larvae in each cup (final volume of 100 mL) or were divided immediately after soaking. Six replicas were treated with the lethal concentration 50 (0.00573 ppm) of temephos and 2 replicas with ethanol only (control group). Mortality was recorded after 24 and 48 hours. See Flowcharts 1 and 2 (FIGS. 1 and 2, respectively).
Susceptibility tests were carried out according to the methodology proposed by the World Health Organization (WHO). In order to characterize the status of Temephos resistance in Ae. aegypti (Rio de Janeiro) strain, the present inventors first determined the lethal concentration LC99 (concentration able to kill 99% of the larvae) using the susceptible strain (Rockfeller) (see FIG. 5: 0.01401 ppm). Then, bioassays with the Rio de Janeiro strain were performed using a diagnostic concentration of 0.0282 ppm of Temephos, which corresponded to twice the lethal concentration, 99% (LC99), determined for this susceptible strain. According to WHO, when the field population is treated with the diagnostic dose and the mortality rates are equal to or higher than 98%, the population is considered susceptible, between 80% and 98%, with alterations in susceptibility, and below 80%, resistant [WHO (1981) WHO/VBC/81.807]. […]

[3] = tested on: Argonaute-3 (AAEL007823) mRNA; assay: qPCR of Ago-3 mRNA after dsRNA treatment of larvae
Description: as §1
(§2) Approximately 1000 ng first-strand cDNA obtained as described previously was used as template. The qPCR reactions were performed using SYBR® Green PCR Master Mix (Applied Biosystems) following the manufacturer's instructions. […] Raw quantification cycle (Cq) values normalized against those of the tubulin and S7 standards were then used to calculate the relative expression levels in samples using the 2^−ΔΔCt method previously described [Livak & Schmittgen (2001) Methods. […]
(§3) Approximately 1000 ng first-strand cDNA obtained as described previously was used as template. […] Raw quantification cycle (Cq) values normalized against those of the tubulin and S7 standards were then used to calculate the relative expression levels in samples using the 2^−ΔΔCt method [Livak & Schmittgen, (2001) Methods. […]

[4] = tested on: P-glycoprotein (AAEL010379) mRNA; assay: qPCR of P-glycoprotein mRNA after dsRNA treatment of larvae
Description: as §1, §2, §3

[5] = tested on: A. aegypti 3rd instar larvae, Rockefeller strain; assay: Larvae feeding with food-containing dsRNA and bioassay with diflubenzuron; conditions: diflubenzuron 2.5 μg/L
Description: FIG. 9A, 3rd instar larvae of Rockefeller strain were exposed to diflubenzuron (DBZ) pestanal larvicide (2.5 μg/L) in plastic cups containing 100 mL of dechlorinated tap water and fed simultaneously with dsRNA-containing food. Larval mortality was determined each 3 days. FIG. 9B, larvae were soaked with Sodium channel dsRNAs and exposed to diflubenzuron as described in FIG. 9A. Effects of diflubenzuron on adult emergence is shown as the percentage of emergence inhibition (100-100(T/C), where T is emergence (%) in DBZ-treated groups and C is emergence (%) in control groups. *p<0.01 (ANOVA, bar=S.D, n=4).
3rd instar larvae of Rockefeller strain were exposed to diflubenzuron (DBZ) pestanal larvicide (2.5 μg/L) in plastic cups containing 100 mL of dechlorinated tap water and fed simultaneously with dsRNA-containing food targeting PgP (FIG. 10A) or dsRNA-containing food targeting Sodium channel (FIG. 10B). Larval mortality was determined each 3 days. […]
Third instar larvae (in groups of 10 larvae) were exposed to one concentration (2.5 μg/L) of diflubenzuron pestanal (Sigma) in a final volume of 100 mL of chlorine-free tap water. […] The inhibition of emergence (%) was calculated according to the following formula: 100-100(T/C) where T is percent emergence in treated groups and C is percent emergence in control groups [Mulla et al. (1974) Proc. Papers Calif. […]

[6] = 24 and 48 hours after end of 24 hour soaking of 3rd instar larvae
[7] = soaked as third instar larvae, reared until adult stage

CC1(C)[C@H](C(=O)O[C@H](C#N)c2cccc(Oc3ccccc3)c2)[C@@H]1C=C(Br)Br [deltamethrin]
mortality at 2 µg/mL ([1]; Rio de Janeiro strain): 64% | mortality at 2 µg/mL ([1]; Rockfeller strain): 100% | mosquitoes of the population resistant to deltamethrin ([1]; Rio de Janeiro (RJ) population): 36.05%

COP(=S)(OC)Oc1ccc(Sc2ccc(OP(=S)(OC)OC)cc2)cc1 [Temephos]
mortality at 0.0282 ppm ([2]; Aedes aegypti, read-out: mortality at diagnostic concentration): 60% | lethal concentration 50 ([2]; LC50 used to treat third instar larvae, strain not stated): 0.00573 ppm | lethal concentration LC99 (concentration able to kill 99% of the larvae) ([2]; susceptible strain (Rockfeller)): 0.01401 ppm

B1: Ago-3 dsRNA: dsRNA targeting Ae. aegypti Argonaute-3 gene AAEL007823, SEQ ID NO: 185 (nucleic acid)
chain: CCCCGTCGACGGCCACGAAGTTACGATCAAGATCATTTACAAGCGCAAACAGCGAATGAGCGAGAACATTCAATTCTACAACATTCTCTTCCAACGCATTATGAAAGTCCTGAAGATGGTCGAGATGGGTCGTAAGAACTTTGACCCCTCGGCCCCGAAACTGATTCCGCAGCATCGTCTGGAGATCTGGCCGGGATACGTTAGCGCTGTGGACGAATATGAGGGCGGCTTGATGTTGAATCTCGACGTGTCCCATCGTGTGCTGCTCCAGACGACGGTTTTGGATCACATCCGAACGCTGGCAAGGGCCAATCCCCAAGATTACAAAAACATGGCCACCAAATCGCTGCTGGGAGCCGTTATATTGACCCGA
modifications: double stranded RNA
Ago3 mRNA levels after the end of dsRNA treatment (FIG. 19B) [3, 6]: decreased mRNA levels | Ago-3 mRNA expression by qPCR (FIG. 8B) ([3]; RJ third instar larvae soaked 24 hours, after treatment with Temephos, versus water): induced gene silencing; also recorded: reduction in the mRNA levels | Ago3 mRNA expression in adult mosquitoes (FIG. 20B) [3, 7]: reached normal levels

B2: P-glycoprotein dsRNA: dsRNA targeting Ae. aegypti P-glycoprotein gene AAEL010379, SEQ ID NO: 184 (nucleic acid)
chain: TGGAAAAGTTGACATTGACGGGATCACGACAACTGATTTCCAGCTTGGCCGCATACGTTCACAAATGGGTCTCGTATCGCAAGAACCTGTTCTGTTTGATCGCACCATCGCGGAAAATATTGCTTATGGTGACAACACTCGCGAGATAAGCATGCCGGAGATAATCGAGGCATCCAAAATGGCAAACATTCACGAATTCATCGTCAATCTACCGAAGGGGTATGACACTAGCCTAGGAACCAAAGGAGCTCAATTGTCTGGTGGCCAAAAGCAACGTATTGCTATAGCTCGTGCTTTGGTTAGAAATCCACGAATCC
modifications: double stranded RNA
PgP mRNA levels after the end of dsRNA treatment (FIG. 19A) [4, 6]: decreased mRNA levels | P-glycoprotein mRNA expression by qPCR (FIG. 7) ([4]; larvae soaked 24 hours in dsRNA, temephos bioassay at third instar, versus water): induced gene silencing; also recorded: decrease in mRNA expression level | PgP mRNA expression in adult mosquitoes (FIG. 20A) [4, 7]: reached normal levels | viability of mosquito larvae 4 days after treatment with DBZ (FIGS. 10A-B) ([5]; fed agarose cubes with 20 μg dsRNA once a day for 4 days): reduced significantly the viability of mosquito larvae | susceptibility to diflubenzuron: larvae mortality and adult emergence (FIGS. 9A-B) ([5]; fed dsRNA-containing food simultaneously): increases its susceptibility to diflubenzuron insecticide
